# Measured values from US11479601B2, “Antibodies specific to Sonic Hedgehog and method of use thereof” (The Regents of the University of California, priority 2016, dated 2022).
# Several values for one entry are separate records, joined by “and”; a condition that tells them apart may be missing. Equal values may be shown once.
# B1: 2G4: purified mouse monoclonal C-terminal Shh antibody from hybridoma sub-clone 2G4 of clone 1C11, IgG1 kappa (antibody, V domains shown)
# VH: EVKLVESGGGLVKPGGSLKLSCAASGFTFSSYTMSWVRQTPAKRLEWVATISSGGGNTYYPDSVKGRFTISRDNARNTLYLQMSSLRSEDTAMYYCARDYRSLFAYWGQGTLVTVSA
# VL: QIVLTQSPAIMSASPGEKVTITCSASSSVSYMHWFQQKPGTSPKLWIYSTSNLASGVPARFSGSGSGTSYSLTISRMEAEDAATYYCQQRSSYPFTFGSGTKLEIK
# Assays:
# [1] = tested on: A549 cell subcutaneous xenograft tumor; assay: A549 subcutaneous xenograft, intra-tumor injection of C-terminal Shh antibody; type: in vivo, mice
# Procedure: For xenograft formation, female nude mice, 5 to 10 weeks old, were injected subcutaneously (SC) with 10 million A549 cells in the dorsal area in a volume of […]. For SC inoculation of sorted cells, 1,500 cells of A549 Shh+ or Shh− cells were injected in a volume of […]. For intra-veinous injection of sorted cells, 1,000 cells of A549 Shh+ or Shh− cells were injected in the tail vein. For the in vivo treatment assay, after xenograft formation, animals were injected intravenously with cisplatin (10 mg/kg weekly), docetaxel (10 mg/kg twice a week) or vehicle, and intraperitoneally with GDC0449 (20 mg/kg daily) or vehicle. Each group consisted in 4-5 mice. Tumor size was determined twice a week, and tumor volumes were calculated using width (x) and length (y) (x^2y/2, where x<y). Tumors were collected after mice euthanasia, and cell dissociation was performed as for fresh human samples (cf supra). Flow cytometry and FACS were done as described supra. All animals were cared in accord with University of California San Francisco (UCSF) guidelines.
# (§1) The in vivo effect of the C-terminal Shh antibodies were tested using the A549 cell subcutaneous xenograft tumor model in mice, as described in Example 1. After xenograft formation, animals were intra-tumor injected with a C terminal Shh antibody (2G4 or 2D9; each at 158 μg), or a control solution, 3 times a week for about 3 weeks (at 2-3 day intervals). Tumor volume was determined, as described in Example 1, every 2 days. Weight and size of the excised tumor were determined after the antibody treatment. A portion of the excised tumor was sectioned for immunohistochemical analysis of Shh protein expression, and RNA was extracted from another portion of the excised tumor for analysis of Gli1 expression.
# GLI = assay: Ex vivo GLI expression in excised A549 xenograft tumors; design: species or system mice; details: tumors after 8 mg/kg treatment, versus IgG controls
# Procedure: as §1, with “A portion of the excised tumor was sectioned for immunohistochemical analysis of Shh protein expression, and RNA was extracted from another portion of the excised tumor for analysis of Gli1 expression.” left out
# Total protein from whole-cell lysates was prepared with M-PER buffer (ThermoFisher Scientific) and from frozen tissues with T-PER (ThermoFisher Scientific) supplemented with protease and phosphatase inhibitors (Roche). Subsequently protein concentrations were determined via a Bradford assay. Equal quantities of proteins were combined with 5× protein loading buffer and separated by SDS-PAGE followed by PVDF membrane transfer. […]
# Antibody-treated tumors were harvested to extract total RNA using Trizol (Invitrogen) and cDNA was synthesized using reverse transcriptase from iScript's cDNA Synthesis Kit (Bio-Rad). Real-time quantitative reverse transcript-polymerase chain reaction (qRT-PCR) was performed with TaqMan® Universal PCR Master Mix (Life Technologies) using gene specific PCR primers for human […] (Life Technologies). […]
# Shh protein = assay: Ex vivo Shh staining of excised A549 xenograft tumors; type: in vivo, mice
# Procedure: as §1
# Control IgG and Ab 1C11-2G4-treated A549 tumors harvested from mice were sectioned ([…]) and stained with a commercially available Sonic Hedgehog (Shh) antibody (Abcam 53281, 1:100) post acetone fixation, 0.2% Triton-X 100 permeabilization and serum blocking steps. A FITC-conjugated secondary antibody (1:1000) and […] DAPI (Vector Laboratories) mounting medium were used to stain sections prior to imaging at 20× magnification using a Zeiss Axiolmager 2 fluorescence microscope. Captured images were processed via ImageJ software (available at https://imagej.nih.gov/ij/download.html) and representative images are presented.
# To assess the effects of antibody administration on hedgehog epitope occupancy, tumors were sectioned and stained with a commercial antibody specific for sonic hedgehog (Shh). […] Confirmatory results were observed when ground up permeabilized tumor cells were labeled with the commercially available Shh antibody and assessed using flow cytometry; 1C11-2G4-treated tumors (20%-Shh-labeled) contrasted with IgG controls (80%-Shh-labeled) (FIG. 46B).
molecule,measurement,setting,value
B1,"Average % change in tumor volume, relative to day −2",[1]; Day 0,104.50%
same,Average change in tumor volume,"[1]; Day 0, 158 μg intra-tumor 3 times a week",14.6 mm^3
same,"Average % change in tumor volume, relative to day −2",[1]; Day 2,90.20%
same,Average change in tumor volume,[1]; Day 2,−21.7 mm^3
same,"Average % change in tumor volume, relative to day −2",[1]; Day 5,103.10%
same,Average change in tumor volume,[1]; Day 5,15.3 mm^3
same,"Average % change in tumor volume, relative to day −2",[1]; Day 7,105.80%
same,Average change in tumor volume,[1]; Day 7,33.5 mm^3
same,"Average % change in tumor volume, relative to day −2",[1]; Day 12,121.90%
same,Average change in tumor volume,[1]; Day 12,103 mm^3
same,"Average % change in tumor volume, relative to day −2",[1]; Day 14,137.70%
same,Average change in tumor volume,[1]; Day 14,138.2 mm^3
same,"Average % change in tumor volume, relative to day −2",[1]; Day 16,148%
same,Average change in tumor volume,[1]; Day 16,174.04 mm^3
same,"Average % change in tumor volume, relative to day −2",[1]; Day 19,189.60%
same,Average change in tumor volume,[1]; Day 19,277.7 mm^3
same,"Average % change in tumor volume, relative to day −2",[1]; Day 21,202.40%
same,Average change in tumor volume,[1]; Day 21,337.8 mm^3
same,"Average % change in tumor volume, relative to day −2",[1]; Day −2,100%
same,"Weight of tumor after treatment, AVG",[1]; average of 3 animals,0.0644
same,Weight of tumor after treatment,[1]; individual animals,0.048 and 0.0966 and 0.0486
same,GLI transcripts (qRT-PCR) and GLI polypeptide expression (Western blot) in tumors,GLI,significant reduction in GLI transcripts
same,cells expressing Shh protein in excised tumor (immunostaining),"Shh protein; intra-tumor antibody 158 μg, compared to control tumor samples",fewer cells expressing Shh protein
same,number of Shh-labeled cells in permeabilized tumor sections (immunofluorescence),"Shh protein; tumors after 8 mg/kg treatment, versus IgG controls",significant reduction in the number of Shh-labeled cells
same,"Shh-labeled cells in ground up permeabilized tumor cells (flow cytometry, commercial Shh antibody)","Shh protein; tumors after 8 mg/kg treatment, IgG controls 80%",20%
